Sequences and labels used below:
B1: Ramazzottius varieornatus damage suppressor protein (Rv Dsup) [Ramazzottius varieornatus] / mononucleosomes reconstituted by salt dialysis with purified recombinant Drosophila core histones [Drosophila] (parent)
chain 1: MASTHQSSTEPSSTGKSEETKKDASQGSGQDSKNVTVTKGTGSSATSAAIVKTGGSQGKDSSTTAGSSSTQGQKFSTTPTDPKTFSSDQKEKSKSPAKEVPSGGDSKSQGDTKSQSDAKSSGQSQGQSKDSGKSSSDSSKSHSVIGAVKDVVAGAKDVAGKAVEDAPSIMHTAVDAVKNAATTVKDVASSAASTVAEKVVDAYHSVVGDKTDDKKEGEHSGDKKDDSKAGSGSGQGGDNKKSEGETSGQAESSSGNEGAAPAKGRGRGRPPAAAKGVAKGAAKGAAASKGAKSGAESSKGGEQSSGDIEMADASSKGGSDQRDSAATVGEGGASGSEGGAKKGRGRGAGKKADAGDTSAEPPRRSSRLTSSGTGAGSAPAAAKGGAKRAASSSSTPSNAKKQATGGAGKAAATKATAAKSAASKAPQNGAGAKKKGGKAGGRKRK
chain 2: not shown
chain 3: not shown
chain 4: not shown
chain 5: not shown

In one assay the parent is B1. Briefly: gel mobility shift. Particulars: Dsup/Nucleosome 3.0, mononucleosome, 5S rDNA sequence (147 bp), parent: 73.
Turning to chain 1 R363E R364E R367E, the response came to 47 % Bound.

Staying with this assay, now noted: Dsup/Nucleosome 4.5, mononucleosome, 5S rDNA sequence (147 bp), parent: 95.
On to chain 1 R363E R364E R367E, for which the response came out at 69 % Bound.

The record behind these values is article PMC6773438.
